The values that follow come from the supplement of paper PMC10724198.

Data set [1] concerns Saccharomyces cerevisiae. Put plainly: protein stability index of tFT-peptide fusion (C-terminal peptide) (PSI (0-1 scale)); higher = more stable (slower turnover). The settings on record: genetic background: wild type; temperature: 30 C.
In data set [2] the test system is Saccharomyces cerevisiae. The data set is described as above. The protocol: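 MPS profiling in S. cerevisiae of the tFT-X12 degron library: putative degron peptides plus stable controls, 12 aa, fused to the C-terminus of a sfGFP-mCherry timer. Cells are FACS-sorted into 8 mCherry/sfGFP bins and deep-sequenced. PSI runs from 0 (unstable) to 1 (stable). Backgrounds are wild type, das1Δ and doa10Δ at 30 °C, and wild type, das1Δ, cdc34-1 and cdc53-1 at 37 °C; 2-3 technical replicates each.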

Where [3] appears, read: genetic background: cdc34-1, temperature: 37 C.
[4] abbreviates: genetic background: cdc53-1, temperature: 37 C.
[5] abbreviates: genetic background: das1 deletion, temperature: 30 C.
The mark [6] stands for this setting: genetic background: das1 deletion, temperature: 37 C.
The mark [7] stands for this setting: genetic background: doa10 deletion, temperature: 30 C.
[8] abbreviates: genetic background: wild type, temperature: 30 C.
The mark [9] stands for this setting: genetic background: wild type, temperature: 37 C.

± gives the standard deviation of the averaged measurements.
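Also: PSI is a weighted mean of sequencing reads over stability bins, variants kept only with over 10 reads, mCherry proximal and sfGFP distal, peptide attached via GGGS linker.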

As for VRELGVGGWRRQ, the protein stability index in the data set with Saccharomyces cerevisiae [1] turned out to be 0.283 ± 0.01; with Saccharomyces cerevisiae [2] (setting [3]), 0.58 ± 0.08; with Saccharomyces cerevisiae [2] (setting [4]), 0.7 ± 0.0064; with Saccharomyces cerevisiae [2] (setting [5]), 0.619 ± 0.016; with Saccharomyces cerevisiae [2] (setting [6]), 0.752 ± 0.004; with Saccharomyces cerevisiae [2] (setting [7]), 0.11 ± 0.012. Moreover, the protein stability index with Saccharomyces cerevisiae [2] (setting [8]) turned out to be 0.129 ± 0.012; in the data set on Saccharomyces cerevisiae [2] (setting [9]), 0.405 ± 0.0063.
On to VRLLLIFRLLVI, for which the protein stability index in the data set on Saccharomyces cerevisiae [1] was 0.299 ± 0.09; with Saccharomyces cerevisiae [2] (setting [3]), 0.463 ± 0.0077; in the data set with Saccharomyces cerevisiae [2] (setting [4]) it was 0.539 ± 0.013; in the data set with Saccharomyces cerevisiae [2] (setting [5]), 0.417 ± 0.039; with Saccharomyces cerevisiae [2] (setting [6]) it was 0.551 ± 0.0066; in the data set with Saccharomyces cerevisiae [2] (setting [7]) it was 0.2909 ± 0.0022. Also, the protein stability index in the data set with Saccharomyces cerevisiae [2] (setting [8]) came to 0.267 ± 0.038; in the data set with Saccharomyces cerevisiae [2] (setting [9]), 0.447 ± 0.02.
For the sequence VRNYWKYVVIFP, the protein stability index was 0.569 ± 0.15 in the data set on Saccharomyces cerevisiae [1]; 0.624 ± 0.0047 with Saccharomyces cerevisiae [2] (setting [3]); 0.711 ± 0.023 in the data set on Saccharomyces cerevisiae [2] (setting [4]); 0.617 ± 0.0079 in the data set with Saccharomyces cerevisiae [2] (setting [5]); 0.7338 ± 0.0065 in the data set with Saccharomyces cerevisiae [2] (setting [6]); 0.578 ± 0.011 with Saccharomyces cerevisiae [2] (setting [7]). For the same sequence, the protein stability index in the data set with Saccharomyces cerevisiae [2] (setting [8]) came out at 0.569 ± 0.023; in the data set on Saccharomyces cerevisiae [2] (setting [9]) it was 0.674 ± 0.068.
Take VSCFIVSFWVFL: the protein stability index in the data set on Saccharomyces cerevisiae [1] came to 0.471 ± 0.012; with Saccharomyces cerevisiae [2] (setting [3]), 0.389 ± 0.0086; in the data set on Saccharomyces cerevisiae [2] (setting [4]), 0.461 ± 0.033; with Saccharomyces cerevisiae [2] (setting [5]) it was 0.355 ± 0.02; in the data set on Saccharomyces cerevisiae [2] (setting [6]) it was 0.546 ± 0.008; in the data set with Saccharomyces cerevisiae [2] (setting [7]), 0.309 ± 0.034. Further, the protein stability index with Saccharomyces cerevisiae [2] (setting [8]) is 0.323 ± 0.031; in the data set on Saccharomyces cerevisiae [2] (setting [9]), 0.495 ± 0.052.
Turning to VSFEFSVLWTVF, the protein stability index in the data set on Saccharomyces cerevisiae [1] came to 0.46 ± 0.018; in the data set with Saccharomyces cerevisiae [2] (setting [3]) it was 0.548 ± 0.073; with Saccharomyces cerevisiae [2] (setting [4]) it was 0.592 ± 0.028; with Saccharomyces cerevisiae [2] (setting [5]) it was 0.515 ± 0.022; in the data set with Saccharomyces cerevisiae [2] (setting [6]), 0.574 ± 0.029; in the data set with Saccharomyces cerevisiae [2] (setting [7]), 0.384 ± 0.016. Moreover, the protein stability index with Saccharomyces cerevisiae [2] (setting [8]) turned out to be 0.383 ± 0.017; with Saccharomyces cerevisiae [2] (setting [9]), 0.469 ± 0.005.
As to VSLCVVYGLVVG, the protein stability index came out at 0.373 ± 0.017 with Saccharomyces cerevisiae [1]; 0.337 ± 0.024 with Saccharomyces cerevisiae [2] (setting [3]); 0.377 ± 0.022 in the data set on Saccharomyces cerevisiae [2] (setting [4]); 0.29 ± 0.029 in the data set with Saccharomyces cerevisiae [2] (setting [5]); 0.446 ± 0.015 in the data set on Saccharomyces cerevisiae [2] (setting [6]); 0.2523 ± 0.0025 with Saccharomyces cerevisiae [2] (setting [7]). In addition, the protein stability index with Saccharomyces cerevisiae [2] (setting [8]) came out at 0.289 ± 0.022; in the data set with Saccharomyces cerevisiae [2] (setting [9]) it was 0.411 ± 0.0082.
Regarding VSLIFCLFFLSC, the protein stability index in the data set with Saccharomyces cerevisiae [1] was determined as 0.442 ± 0.013; in the data set with Saccharomyces cerevisiae [2] (setting [3]), 0.424 ± 0.0047; with Saccharomyces cerevisiae [2] (setting [4]) it was 0.502 ± 0.044; with Saccharomyces cerevisiae [2] (setting [5]) it was 0.402 ± 0.018; in the data set on Saccharomyces cerevisiae [2] (setting [6]), 0.52 ± 0.0063; in the data set on Saccharomyces cerevisiae [2] (setting [7]) it was 0.395 ± 0.024. The results for the protein stability index in the data set on Saccharomyces cerevisiae [2] (setting [8]) and with Saccharomyces cerevisiae [2] (setting [9]) were 0.404 ± 0.027 and 0.492 ± 0.027, respectively.
In the case of VSTVCLDFSPFL, the protein stability index with Saccharomyces cerevisiae [1] was found to be 0.755 ± 0.043; in the data set on Saccharomyces cerevisiae [2] (setting [3]), 0.692 ± 0.065; in the data set with Saccharomyces cerevisiae [2] (setting [4]), 0.7662 ± 0.0043; with Saccharomyces cerevisiae [2] (setting [5]), 0.65 ± 0.018; in the data set with Saccharomyces cerevisiae [2] (setting [6]), 0.781 ± 0.017; in the data set with Saccharomyces cerevisiae [2] (setting [7]) it was 0.668 ± 0.0078. In addition, the results for the protein stability index in the data set on Saccharomyces cerevisiae [2] (setting [8]) and in the data set on Saccharomyces cerevisiae [2] (setting [9]) were 0.66 ± 0.007 and 0.73714 ± 5.4e-05, respectively.
With VTSVARVVLHLL, the protein stability index was found to be 0.3069 ± 0.0026 with Saccharomyces cerevisiae [1]; 0.526 ± 0.018 with Saccharomyces cerevisiae [2] (setting [3]); 0.681 ± 0.031 in the data set with Saccharomyces cerevisiae [2] (setting [4]); 0.606 ± 0.027 with Saccharomyces cerevisiae [2] (setting [5]); 0.7016 ± 0.0041 in the data set on Saccharomyces cerevisiae [2] (setting [6]); 0.0931 ± 0.019 in the data set on Saccharomyces cerevisiae [2] (setting [7]). For the same sequence, the protein stability index in the data set with Saccharomyces cerevisiae [2] (setting [8]) was 0.115 ± 0.021; in the data set on Saccharomyces cerevisiae [2] (setting [9]), 0.165 ± 0.0027.
As for VVCPCIIYVPGV, the protein stability index in the data set on Saccharomyces cerevisiae [1] amounted to 0.466 ± 0.022; in the data set with Saccharomyces cerevisiae [2] (setting [3]), 0.619 ± 0.039; in the data set on Saccharomyces cerevisiae [2] (setting [4]) it was 0.643 ± 0.011; with Saccharomyces cerevisiae [2] (setting [5]), 0.455 ± 0.014; with Saccharomyces cerevisiae [2] (setting [6]), 0.637 ± 0.011; in the data set with Saccharomyces cerevisiae [2] (setting [7]) it was 0.455 ± 0.016. Further, the protein stability index was 0.461 ± 0.0066 in the data set with Saccharomyces cerevisiae [2] (setting [8]) and 0.613 ± 0.021 in the data set with Saccharomyces cerevisiae [2] (setting [9]).
In the case of VVFLLGPLVCGG, the protein stability index in the data set with Saccharomyces cerevisiae [1] was found to be 0.44 ± 0.025; in the data set with Saccharomyces cerevisiae [2] (setting [3]), 0.5042 ± 0.0031; in the data set with Saccharomyces cerevisiae [2] (setting [4]), 0.514 ± 0.018; in the data set on Saccharomyces cerevisiae [2] (setting [5]) it was 0.392 ± 0.021; in the data set with Saccharomyces cerevisiae [2] (setting [6]), 0.535 ± 0.0069; in the data set with Saccharomyces cerevisiae [2] (setting [7]), 0.375 ± 0.016. In addition, the protein stability index in the data set on Saccharomyces cerevisiae [2] (setting [8]) came out at 0.397 ± 0.019; in the data set with Saccharomyces cerevisiae [2] (setting [9]), 0.5125 ± 0.0021.
VVFVGRSIVVLT: the protein stability index with Saccharomyces cerevisiae [1] was 0.419 ± 0.047; in the data set on Saccharomyces cerevisiae [2] (setting [3]), 0.508 ± 0.019; with Saccharomyces cerevisiae [2] (setting [4]), 0.525 ± 0.014; with Saccharomyces cerevisiae [2] (setting [5]), 0.358 ± 0.038; with Saccharomyces cerevisiae [2] (setting [6]), 0.567 ± 0.019; in the data set on Saccharomyces cerevisiae [2] (setting [7]), 0.336 ± 0.037. Moreover, the protein stability index was 0.371 ± 0.03 in the data set on Saccharomyces cerevisiae [2] (setting [8]) and 0.519 ± 0.019 in the data set on Saccharomyces cerevisiae [2] (setting [9]).
As for VVFWFPFVLRCC, the protein stability index stood at 0.065 ± 0.017 in the data set with Saccharomyces cerevisiae [1]; 0.0644 ± 0.019 with Saccharomyces cerevisiae [2] (setting [3]); 0.0927 ± 0.0061 in the data set with Saccharomyces cerevisiae [2] (setting [4]); 0.193 ± 0.03 in the data set with Saccharomyces cerevisiae [2] (setting [5]); 0.2959 ± 0.0026 with Saccharomyces cerevisiae [2] (setting [6]); 0.0639 ± 0.0037 with Saccharomyces cerevisiae [2] (setting [7]). Also, the figures for the protein stability index in the data set with Saccharomyces cerevisiae [2] (setting [8]) and with Saccharomyces cerevisiae [2] (setting [9]) were 0.0509 ± 0.0053 and 0.072 ± 0.034, respectively.
In the case of VVFWWGHLLVSA, the protein stability index in the data set on Saccharomyces cerevisiae [1] amounted to 0.142 ± 0.024; in the data set with Saccharomyces cerevisiae [2] (setting [3]), 0.03535 ± 6.3e-05; in the data set on Saccharomyces cerevisiae [2] (setting [4]) it was 0.0483 ± 0.016; in the data set on Saccharomyces cerevisiae [2] (setting [5]) it was 0.118 ± 0.031; with Saccharomyces cerevisiae [2] (setting [6]), 0.113 ± 0.009; in the data set with Saccharomyces cerevisiae [2] (setting [7]), 0.0877 ± 0.021. For the same sequence, the results for the protein stability index with Saccharomyces cerevisiae [2] (setting [8]) and in the data set on Saccharomyces cerevisiae [2] (setting [9]) were 0.0919 ± 0.021 and 0.0854 ± 0.0074, respectively.
As to VVLVVVWWGGVE, the protein stability index with Saccharomyces cerevisiae [1] was 0.3931 ± 0.00072; in the data set on Saccharomyces cerevisiae [2] (setting [3]), 0.242 ± 0.051; in the data set on Saccharomyces cerevisiae [2] (setting [4]), 0.421 ± 0.074; in the data set on Saccharomyces cerevisiae [2] (setting [5]), 0.249 ± 0.034; with Saccharomyces cerevisiae [2] (setting [6]), 0.4872 ± 0.0025; in the data set on Saccharomyces cerevisiae [2] (setting [7]) it was 0.21 ± 0.003. The protein stability index in the data set with Saccharomyces cerevisiae [2] (setting [8]) was determined as 0.258 ± 0.029; in the data set on Saccharomyces cerevisiae [2] (setting [9]), 0.403 ± 0.036.
